This passage reports protein production results from a protein production outcome set (Wang et al. 2014).

This data set is described as follows: label from the status in PepcDB records.
Regarding “MYTNRWEGLDEFVAVAECGQFTAAALRLGVSSSHVSRQIVRLEERLQTRLLYRSTRKVALTEAGQTFLHHCQRLQDGREEALRAVGDLASEPKGLLRMTCAVAYGERFITPLVTRFMELYPQLRVDIELSNDTLDLVHEGMDLAIRLGRLQDSRMVATRLAPRQMYLCASPSYLERYGRPHSLSELSRHNCLIGGSDTWQLQQNGREFSQRVQGNWRCNSGQAVLDAALQGVGLCQLPDYYVQKHLKEGALVSLLEAHQPPNTAVWALYPQQRHLSPKVRKLVDYLKEGLAMQDEYRQ”, the protein production entry is on record as “failed”.
With “MMRPLCFFLLIFLLSGNPVMAAELRPFICVNEKDHLPSLDPQADAWYREAVALAKPDTLRPWDRIVDLYSKAVERGHWKAMHNLASLYRTGWPGGVEKDTQKALDLYQKMIDLKVPQGFYDMAAMIGNRAGVKNPATDGLTFLDKAASLGNPPALTELGRLYIYVAGQDELGLKYTNCAAGQGYAPANYELAMYYRLVAHNYPKAAGYYLLAASQGNDDAAFFMSGVFDKTSPDVDRMWYAPDEKLHKLYDGIYDQLAADPDLRFPNLIKDHPLPPHPTQGYDADRPDWKPGQ” the entry was “failed”; with “PDQCKPPQVTCRSATCAQVNWEVPLSNGTDVTEYRLEWGGVEGSMQICYCGPGLSYEIKGLSPATTYYCRVQALSVVGAGPFSEVVACVTPPS”, “not failed”.
Take “MYLLDTTSTAAISIYALLLTAYRSMQVLYARPIDGPAVAAEPVETRPLPAVDVIVPSFNEDPGILSACLASIADQDYPGELRVYVVDDGSRNREAIVRVRAFYSRDPRFSFILLPENVGKRKAQIAAIGQSSGDLVLNVDSDSTIAFDVVSKLASKMRDPEVGAVMGQLTASNSGDTWLTKLIDMEYWLACNEERAAQSRFGAVMCCCGPCAMYRRSALASLLDQYETQLFRGKPSDFGEDRHLTILMLKAGFRTEYVPDAIVATVVPDTLKPYLRQQLRWARSTFRDTFLALPLLRGLSPFLAFDAVGQNIGQLLLALSVVTGLAHLIMTATVPWWTILIIACMTIIRCSVVALHARQLRFLGFVLHTPINLFLILPLKAYALCTLSNSDWLSRYSAPEVPVSGGKQTPIQTSGRVTPDCTCSGE”: the protein production entry is reported as “failed”.
With “MTETKPRIAIRYCTQCNWLLRAGWMAQEILQTFASDIGEVSLIPSTGGLFEITVDGTIIWERKRDGGFPGPKELKQRIRDLIDPERDLGHVDRTKHEGLDTLEHHHHHH” the entry was “not failed”; with “APFFEMKLKHYKIFEGMPVTFTCRVAGNPKPKIYWFKDGKQISPKSDHYTIQRDLDGTCSLHTTASTLDDDGNYTIMAANPQGRISCTGRLMVQAVN”, “not failed”.
In the case of “MDVKKDENSILENMKQEINHSLKEEAQEEEEILKKRISSHPLYGLLLHSHLNCLKVCSGDFDSPEIMNTADDLALSKLSLHPDSSSEATSSELDQFMVLFFFSPCQNIFTQQKTTFHVLLFFPLQINLTFKYSKFILPRKKQ”, the protein production entry was “failed”.
“MDKHNEEHIYVAIDLKSFYASVECRERGKDALTTNLVVADPTRTEKTICLAVSPALKAYGIPGRARLFEVVQRVKEVNKLRLSKLMASGHAAGTVERRKKYVTEIDIAENDITESTMAGFDYASYNANLLDAHPEYELTYIVAPPRMALYMDYSTRIYNIYLKYIAPEDISVYSIDEVFMDVTHYLRTYHMTARELASKMIDDVLKDTGITATCGIGTNLYLCKIAMDIMAKHAMPDERGVRIAELNENSYRRKLWDHRPITDFWRVGAGYAKKLEAAGMYTMGDVARCSTGGSNDFYNEEKLYKMFGINAELLIDHAWGYEPVTIADIKAYRPQTNSISSGQVLQEPYDYEKTKLIVREMTDLLVLDLVDKRLVTDQIVLTIGYDIANLSNKADSCLGNNYDHAVNNKGRDSIGGKKGTHRDYTGEITIDRYGRKVPKHAHGTANLGRYTSSTRIIMDAVMELYDRIIDPSLLTRRITVVANRVCDESKVQESEQFEQLDLFTDYQARAKEKKKEDEALSKERKLQEAMISVKKKYGKNAMLKGMNLEEGATTISRNNQIGGHKA”: the protein production result was “failed”.
Next, “MTDQRFKIVFSGELMPDASLETVKDNLARLFKSEPGKIDALFGGRPVVLKRELPEAEAERYLTALRQAGANAYKEVDLAASLSLVETPDHNPQVAEETPAQDLPPMTCPKCGHEQPSGAECSACGVIIEKYLARQAQLGENAAPAATAAAGASPYTPPSAQVGDTLPEFGELNVFTTNGRIGRLRYLGWSMAMTLCFLVIMGLGFLLGETVGVAVTALASIAFIVIAVMIGVQRLHDLGWSGWLWLLNFVPFVGSVFGILMLVLPGSTGANRYGPPPPANSTGVKVLASLIILLPIVGIIAAIALPSYQGYLERANYDGGASAPADPYTTDEQAAAAAAEADEAATAAAEAMEDDDQQ”: “failed”; “MVQAHGGRSRAQPLTLSLGAAMTQPPPEKTPAKKHVRLQERRGSNVALMLDVRSLGAVEPICSVNTPREVTLHFLRTAGHPLTRWALQRQPPSPKQLEEEFLKIPSNFVSPEDLDIPGHASKDRYKTILPNPQSRVCLGRAQSQEDGDYINANYIRGYDGKEKVYIATQGPMPNTVSDFWEMVWQEEVSLIVMLTQLREGKEKCVHYWPTEEETYGPFQIRIQDMKECPEYTVRQLTIQYQEERRSVKHILFSAWPDHQTPESAGPLLRLVAEVEESPETAAHPGPIVVHCSAGIGRTGCFIATRIGCQQLKARGEVDILGIVCQLRLDRGGMIQTAEQYQFLHHTLALYAGQLPEEPSP”: “failed”; “MGRKRKHSETEAPAPVKKSDEPAPDRPKRTLLGWKDKSEGEAEKAKALTSSGFKNKEKVLVTCSRRISFRYRSLMLNIVSLLPHCKKDSKVEAKSSKGATLNELIELKNSNSCLFFECRKHKDLYMWMVKSPNGPSVKFLVKAVHAMEEMKLTGNHLKGSRPLLTFSSNFDKDAHWKLLKEMLTQVFGIPKEHRKSKPYHDHVFVFSIVDEHIWFRNYQISVPHNESDKIAKGGLDKMTLIEVGPRFCLNPIKIFAGSFGGPTLYENPLYVSPNQIRALEKRNKAGKFAKKIKAKTRKKMHELSNPLEPDEFADMWKDDE”: “failed”.
With “MNPPEKLLTAENPALRQRAKAMRQEMSEAEAKLWQHLRAGRLNGYKFRRQQPMGNYIVDFMCVTPKLIVEADGGQHAEQAVYDHARTVYLNSLGFTVLRFWNHEILQQTNDVLAEILRVLQELEKQPAR” the entry was “not failed”; with “MNDFKGWETRSYLFLALMVGVQLVAFAINPSNWITLVGGLAGIICVNLIAQGKVSNYIFGLISAVIIGYFGLVTRVYAEVLLQSFYIIMDITGLYAWLRASEDGSGQVTEVKVLKGIQWLYAFFTWLLIGVAAYILLGFVNDAQQTLDAITFSVSATGMLLMIKRYQSQFVFWLLGNIFSILLWFRAGTHAGGDYAIFVMYCMYTFNSIFGMFNWLKIKNKMEKNR”, “failed”.
With “MPAPKKALRRSLTVTSAALTALALLSPAALAAPSPSTSPSATPPASMSGVGGARLGKPGTQVDLAGGAPVLPKDLTARSWIVADAESGDVLAAHNAHWELAPASTLKMLFADTLLPKWPKTTKRKVQVSDLAGIGSGSSMVGIKEEETYTVHDLWLGVFLRSGNDAVHVLSAMNDGVEKTVADMNAHAKELQAGDTTVVSPDGYDMPGQVSSAYDLTLFARSGLQKKDFREYASTVRAKFPGETKKDKKGKTSREPFEIQNTNRLLAGDADVEVYPGIAGVKNGYTTNAGNTFTGVAEQGGKVLLVTVMHPAEDKHNEVYKETARLFDWGFRAAGKVRPVGELVRPRSATAASPSAEASGEAGGTGKGGAGTKPVAGAAAGDGAGGAGVAAGIAAGVLALLAGGAFLINRKWPLPDLVRRRTRP” the entry was “failed”; with “MNAARYAEHLAIFVEVARGGSFSAVARRHGATPSTITRKIDMLEEFVGTNLLVRSTRALLLTEAGETLFARGVSVLEALTDIHNEVIALSDSMYGTLRISCLPTFGKLHVLPWLADLQQRHPSMRIDLDLTERLTNPSVERLDAAIRIGKLKDSSLFAKQIGTQRWVICASPDYLRQRGHPSDLEDLRRLRLIDKLHDPHSMCWRRLVEKGHIDQIEAAFRCDDFEAMRQAALCGLGAAFLPDWVIAQDLAAGALIRLFDDPEGREDGIHLVRALPKMSAKLEVFHQALSNHLGQVRIGGCLPASR”, “failed”; with “MKFYTILSILFISFMLSACAVLQKSSPLQENKDFYILDTHTQKKISFEDMILELLKADVILLGEKHDEVKHKISQVMIFNALEGNLSSQNINFDVALEMLASTEQNHLDKAFKNKKTIKANELTNALNWDKVWKWKDYEQFVNVVFYSKSKILGANLSRSEITSIYNGAQPLKGYVSTTNEVKKQLFDIISLSHKLNPEENKELLDKLVEIQQFKDRRMADVLVHHVNKVLLLAGSYHTSKKIGIPLHIQDFKSSKKIVVVNLSYGEIDLKDSDYVLIYKGEELEHHHHHH”, “failed”.
Consider “LKDIETACKLLNITADPMDWSPSNVQKWLLWTEHQYRLPPMGKAFQELAGKELCAMSEEQFRQRSPLGGDVLHAHLDIWKSAA”, for which the protein production result is recorded as “not failed”.
Regarding “MGHHHHHHSHMATSSQYRQLLSDYGPPSLGYTQGTGNSQVPQSKYAELLAIIEELGKEIRPTYAGSKSAMERLKRGIIHARGLVRECLAETERNARS”, the protein production entry was “not failed”.
On to “METKGTGMTVNTVDVSAGRAQQVLREGWAAQRAGALTTSWMLHGRPGVGKTEIVRQLAAEQGARFYDLRLTTIESQDLRGLPYYDHETKKTQWYRPEDLPDDPDRPSLLFLDELTAAPPHLHPAVYGLLLERRVGPHILPDNVFLVAAGNMVEDGAVAYEMGTALSDRLIHLQVRATASDWLESYAVPRTLHPAVLAFIRMRPDLLETTAEALDRGLMISTTPRSWDRVSRIMGAVQDRALRRIMVAGTVGEAVAAEFMLVADDIEASVSVERLLNAAPHERIMLYPESMHGLHALIYGLVGALGPTTAVPVIDVMAGIRTLDVHRSDASFARMPLAELCTHGFEMAIRRGLEQGLAEDFLGHPAYAAYASERQAMGLELEHHHHHH”, for which the protein production entry is “failed”.
Next, “LNDALLLMEANIEDPLTTDEIAGLVGVSRRQLERLFRQYLGAMPSKYYLNLRLLKARTQLQRTSKSVVQVSLACGFSSAAHFSNAYRERFGVTPREDRRA”: “not failed”.
With “MKKKYFLCVFAVILFFTGFLFGNSPVNAAETDTSNVTYNYIDISTLTETQKNSIIKGNPNETLTNDYENYSFVYQKNTSEPTTNTDNTSDNNKNQNGTLLKAGDVGPNSYLIILGFILFGSGIGLLTLKKRHARQLLVFLVVLGGSSLLVGSIVQATENSNLKTQESQTVAKGTKETKQPESMEGYTYVGYIHTSKNNTPPVVEKGTVTVNYQDEQGNSLATSETLEGDIDQPYQTATKNIEGYQLKEVNGNTTGTFTEKAQVVTYVYQKVPVATVTVKYLDQDGNKIHDPQTISGNIGEPYDASTDKYKLRIEGYTLDTTKLPNNANGTFTNQAIEVTYIYTKEAQDVKITIKFVDSNGDPFVLTDLTTYKNGDLVPIYPNLDQYHMRLNYNQEIYNQGEAVPDIVIPAKEGETYSLPERMTFNILDDQGKQIPYVISQNADLSSTGIERWENYLSIPTNREGTLTSEDVVVTYQILVYGVMIPEP” the entry was “failed”; with “MSSNVPADMINLRLILVSGKTKEFLFSPNDSASDIAKHVYDNWPMDWEEEQVSSPNILRLIYQGRFLHGNVTLGALKLPFGKTTVMHLVARETLPEPNSQGQRNREKTGESNCCVIL”, “not failed”.
